The values below come from article doi:10.1101/2023.09.08.556779, “Molecular model of a bacterial flagellar motor in situ reveals a “parts-list” of protein adaptations to increase torque” (bioRxiv, 2024).

The target in data set [1] is PflC, recombinant (C. jejuni). The data set can be described thus: SEC + other: mass photometry; analytical SEC on ENrich SEC 650 in 1× PBS, calibrated with 15–600 kDa standards; mass photometry in PBS.
Data set [2] has as its target PflB (C. jejuni 81–176 (endogenous in minicells)). The data set can be described thus: cryo-EM structure; in situ single particle analysis of C. jejuni ΔflhG ΔflaAB minicells, C17 symmetry; focused refinement of the periplasmic scaffold and first basal disk ring to 7.9 Å; AlphaFold models docked or flexibly fitted.
Data set [3] concerns the molecule itself. The data set is described as above.
Data set [4] concerns the molecule itself. The experiment in a line: SEC + other: mass photometry; analytical SEC on ENrich SEC 650 in 1× PBS, calibrated with 15–600 kDa standards; mass photometry in PBS.

The term stoichiometry N denotes a count of units in the complex or per binding partner. PflC, recombinant (natural protein): in data set [1], the stoichiometry N worked out at 2.
“PflB (from UniProt A0A6F9L7Y3 1-820) (natural protein)” had a stoichiometry N in data set [2] of 17.

B1: FliL (natural protein)
chain: MDEELENEETKKKKGGSLVIIIVILLFVLLLSIMGVIAWLISSSSSDESEVKEAPKEEAKADKPKVSAPTQRGSDFANIGPMYPLDPFTLNLLSDSGSRYVKCTIELEQNSELLKPELDKKVPVIRDIIIRTLTAKTFEEVSTQKGKERLKDELVGKINEILTDGFIKNVYFTDFVVS
notes: FliL of Campylobacter jejuni 81–176; an arc of four in each asymmetric unit of the proximal disk; source: endogenous, C. jejuni 81–176 (minicells imaged in situ; lysate of formaldehyde-crosslinked cells)
B1: the “stoichiometry N” value in data set [3] was determined as 4.

B2: PflCN (Δ236–349), recombinant (domain or fragment)
chain: GIERPKFEDFLAGYERNKASMLNYEGMPAFALSENLLAVLKQPNTKLNKYVKYDPFLNLYLVRTDFSLIPTPMGDEEKLTRNDWVGIWDPNKPYIGHIKYLAQNIDEKDQLDFNSKIGLLGTPCCEMMGIALNNSSFIGNRYLKHFMKYNDVYWGDIGVDFVVRENKIYVNNVRKNPQFLINDQVISVDGLPANDLRKLNEKILFADRGSTLYFQVLRDNSGGDGKFQFFIRLTK
As for B2, in data set [4], the “stoichiometry N” value came out at 2.
